Assay: in vivo
Set-up: species or system BALB/c nu/nu mice
Conditions: male, BALB/c nu/nu, mouse, iv, 2.6 MBq, total radioactivity
Procedure: Biodistribution. BALB/c nu/nu male mice were implanted subcutaneously with 10 million PC-3 tumor cells, freshly expanded in saline. Biodistribution studies were performed 3 to 4 weeks after tumor cell inoculation when the tumor-bearing mice reached an average mass of 20 ± 3 g. Mice were injected with ^68Ga-X-RM2 (100 µL, 2.6 MBq) into the tail vein. The animals were sacrificed at 30, 60, and 120 min post-injection. Then the organs of interest were collected and weighed, and their radioactivity content was measured in a gamma counter.

Row | Structure (SMILES) | tissue to tissue ratio at 0.5 h (Tumour/blood ratio) | tissue to tissue ratio at 1 h (Tumour/blood ratio) | tissue to tissue ratio at 2 h (Tumour/blood ratio) | tissue to tissue ratio at 0.5 h (Tumour/bone ratio) | tissue to tissue ratio at 1 h (Tumour/bone ratio) | tissue to tissue ratio at 2 h (Tumour/bone ratio) | tissue to tissue ratio at 0.5 h (Tumour/kidneys ratio) | tissue to tissue ratio at 1 h (Tumour/kidneys ratio) | tissue to tissue ratio at 2 h (Tumour/kidneys ratio) | tissue to tissue ratio at 0.5 h (Tumour/liver ratio) | tissue to tissue ratio at 1 h (Tumour/liver ratio) | tissue to tissue ratio at 2 h (Tumour/liver ratio) | tissue to tissue ratio at 0.5 h (Tumour/muscle ratio) | tissue to tissue ratio at 1 h (Tumour/muscle ratio) | tissue to tissue ratio at 2 h (Tumour/muscle ratio)
1 | CC(C)C[C@H](NC(=O)C[C@H](O)[C@H](CC(C)C)NC(=O)[C@H](Cc1c[nH]cn1)NC(=O)CNC(=O)[C@@H](NC(=O)[C@H](C)NC(=O)[C@H](Cc1c[nH]c2ccccc12)NC(=O)[C@H](CCC(N)=O)NC(=O)[C@@H](Cc1ccccc1)NC(=O)CN1CCC(NC(=O)CN2CCN(CC(=O)O)CCN(CC(=O)O)CCN(CC(=O)O)CC2)CC1)C(C)C)C(N)=O (68Ga complex, metal not drawn) [DOTA-RM2, reference compound] | 2.35 | 3.88 | 4.58 | 11.2 | 8.99 | 8.6 | 1.53 | 1.89 | 2.05 | 3.19 | 3.4 | 4 | 14.4 | 21.8 | 31.7
2 | CC(C)C[C@H](NC(=O)C[C@H](O)[C@H](CC(C)C)NC(=O)[C@H](Cc1c[nH]cn1)NC(=O)CNC(=O)[C@@H](NC(=O)[C@H](C)NC(=O)[C@H](Cc1c[nH]c2ccccc12)NC(=O)[C@H](CCC(N)=O)NC(=O)[C@@H](Cc1ccccc1)NC(=O)CN1CCC(NC(=O)CCCCC2(N(CC(=O)O)CC(=O)O)CN(CC(=O)O)CCN(CC(=O)O)C2)CC1)C(C)C)C(N)=O [AAZTA^5-RM2] | 3.53 | 8.38 | 15.6 | 21.8 | 36 | 57.5 | 1.2 | 1.41 | 1.31 | 6.04 | 7.55 | 5.92 | 10.3 | 37.6 | 60.7
3 | CC(C)C[C@H](NC(=O)C[C@H](O)[C@H](CC(C)C)NC(=O)[C@H](Cc1c[nH]cn1)NC(=O)CNC(=O)[C@@H](NC(=O)[C@H](C)NC(=O)[C@H](Cc1c[nH]c2ccccc12)NC(=O)[C@H](CCC(N)=O)NC(=O)[C@@H](Cc1ccccc1)NC(=O)CN1CCC(NC(=O)CCCCC2(N(C)CC(=O)O)CN(CC(=O)O)CCN(CC(=O)O)C2)CC1)C(C)C)C(N)=O [DATA^5m-RM2] | 4.23 | 14.6 | 18.2 | 16.2 | 29.3 | 50.2 | 1.73 | 2.2 | 2.41 | 5.86 | 7.57 | 6.09 | 25.4 | 56.8 | 62.2

Reference: article PMC10247930, “The effects of novel macrocyclic chelates on the targeting properties of the ^68Ga-labeled Gastrin releasing peptide receptor antagonist RM2” (EJNMMI Research, 2023)
